Data set [1] deals with T1, RimR2 (Streptomyces rimosus M527, UniProt A0ABY3YSD1 1-918).
T1 sequence: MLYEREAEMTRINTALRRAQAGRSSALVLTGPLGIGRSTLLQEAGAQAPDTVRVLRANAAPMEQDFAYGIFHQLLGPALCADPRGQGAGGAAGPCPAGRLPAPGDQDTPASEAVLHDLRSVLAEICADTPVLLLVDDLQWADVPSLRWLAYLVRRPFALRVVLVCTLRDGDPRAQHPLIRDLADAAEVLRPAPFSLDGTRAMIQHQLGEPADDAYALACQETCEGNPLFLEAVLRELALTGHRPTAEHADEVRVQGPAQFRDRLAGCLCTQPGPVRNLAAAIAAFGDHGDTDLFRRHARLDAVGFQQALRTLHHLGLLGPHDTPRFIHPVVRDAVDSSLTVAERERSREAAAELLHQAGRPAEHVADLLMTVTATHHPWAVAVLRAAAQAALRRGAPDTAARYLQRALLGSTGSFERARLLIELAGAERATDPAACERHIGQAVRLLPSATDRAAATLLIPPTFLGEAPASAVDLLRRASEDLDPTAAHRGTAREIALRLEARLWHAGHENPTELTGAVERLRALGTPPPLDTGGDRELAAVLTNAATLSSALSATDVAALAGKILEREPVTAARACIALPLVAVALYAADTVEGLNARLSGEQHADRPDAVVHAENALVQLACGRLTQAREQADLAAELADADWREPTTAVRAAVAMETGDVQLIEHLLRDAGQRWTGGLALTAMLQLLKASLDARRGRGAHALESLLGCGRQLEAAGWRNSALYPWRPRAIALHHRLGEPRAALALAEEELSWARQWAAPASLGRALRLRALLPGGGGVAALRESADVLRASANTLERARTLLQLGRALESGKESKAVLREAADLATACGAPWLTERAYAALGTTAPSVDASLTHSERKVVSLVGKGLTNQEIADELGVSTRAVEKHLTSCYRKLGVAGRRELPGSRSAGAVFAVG
Kind of data set: EMSA; competed by 100-fold unlabeled probe; LightShift Chemiluminescent EMSA Kit (Thermo); 0.04 pmol/ul biotin probe, 10 ug RimR2; buffer, salt, pH and temperature not stated. The following applies: protein: recombinant; tags: His6 (pET32a, EcoRV/BamHI); blunt. In general terms: In EMSA bound probe runs differently from free probe, usually more slowly.

The target of data set [2] is T1, RimR2. Kind of data set: EMSA; LightShift Chemiluminescent EMSA Kit (Thermo); 0.04 pmol/ul biotin probe, 10 ug RimR2; buffer, salt, pH and temperature not stated. Conditions: protein: recombinant; tags: His6 (pET32a, EcoRV/BamHI); blunt.

B1: rimC promoter probe (dsDNA)
DNA 1: CCCCATCCTGATCACAAAAGACTAAGGGAAATGTTAAAGGTACGGTGTGC
DNA 2: GCACACCGTACCTTTAACATTTCCCTTAGTCTTTTGTGATCAGGATGGGG
Consider B1, for which, in the data set with RimR2 [1], the binding result is recorded as “binds”.

B2: rimR2 promoter probe (dsDNA)
DNA 1: TACCTACAAGAAATTGCGTATCACCTCACGCAAGGAACTCCGCGCGCGGA
DNA 2: TCCGCGCGCGGAGTTCCTTGCGTGAGGTGATACGCAATTTCTTGTAGGTA
B2: the binding result with RimR2 [2] is “binds”.

B3: rimA promoter probe (dsDNA)
DNA 1: ATCACCGTGCACGAGGGCTGACGCCCGCCCGGGCAGGAGCTCGTGTCCGA
DNA 2: TCGGACACGAGCTCCTGCCCGGGCGGGCGTCAGCCCTCGTGCACGGTGAT
Take B3: the binding result with RimR2 [1] is “binds”.

(Values after article PMC9942304, “Identification of RimR2 as a positive pathway-specific regulator of rimocidin biosynthesis in Streptomyces rimosus M527”.)
